Test results taken from paper PMC5713876, “Molecular architectures of benzoic acid-specific type III polyketide synthases” (Acta Crystallographica. Section D, Structural Biology, 2017).

Tests used:
[1] = molecular target: T1, MdBIS3 (MdBIS3.1) (Malus domestica, UniProt K9MST3); assay: X-ray crystal structure, […] Å; format: binding; settings: crystals soaked with 15 mM benzoyl-CoA; CoA tunnel and active site, partial occupancy; active-site cysteine oxidized to sulfinic acid
T1 construct: cDNA in pHIS8, E. coli BL21(DE3), N-terminal His8 tag cut with thrombin; homodimer

[2] = substrate: CC(C)(COP(=O)(O)OP(=O)(O)OC[C@H]1O[C@@H](n2cnc3c(N)ncnc32)[C@H](O)[C@@H]1OP(=O)(O)O)[C@@H](O)C(=O)NCCC(=O)NCCSC(=O)CC(=O)O; assay: steady-state kinetics, LC-MS product quantification; format: biochemical, Hypericum androsaemum; settings: starter substrate held constant (standard 20 µM), 0.1 M potassium phosphate pH 7.0, 37°C
Description: (§1) steady-state kinetics, LC-MS product quantification on HaBPS

[3] = substrate: CC(C)(COP(=O)(O)OP(=O)(O)OC[C@H]1O[C@@H](n2cnc3c(N)ncnc32)[C@H](O)[C@@H]1OP(=O)(O)O)[C@@H](O)C(=O)NCCC(=O)NCCSC(=O)c1ccccc1; assay: as above; format: biochemical, Hypericum androsaemum; settings: malonyl-CoA held constant (standard 80 µM), 0.1 M potassium phosphate pH 7.0, 37°C
Description: as §1

[4] = substrate: CC(C)(COP(=O)(O)OP(=O)(O)OC[C@H]1O[C@@H](n2cnc3c(N)ncnc32)[C@H](O)[C@@H]1OP(=O)(O)O)[C@@H](O)C(=O)NCCC(=O)NCCSC(=O)CC(=O)O; assay: as above; format: biochemical, Malus domestica; settings: starter substrate held constant (standard 15 µM; which starter not told), 0.1 M potassium phosphate pH 7.0, 37°C
Description: (§2) steady-state kinetics, LC-MS product quantification on MdBIS1 (MdBIS1.1)

[5] = substrate: CC(C)(COP(=O)(O)OP(=O)(O)OC[C@H]1O[C@@H](n2cnc3c(N)ncnc32)[C@H](O)[C@@H]1OP(=O)(O)O)[C@@H](O)C(=O)NCCC(=O)NCCSC(=O)c1ccccc1; assay: as above; format: biochemical, Malus domestica; settings: malonyl-CoA held constant (standard 60 µM), 0.1 M potassium phosphate pH 7.0, 37°C
Description: as §2

[6] = substrate: CC(C)(COP(=O)(O)OP(=O)(O)OC[C@H]1O[C@@H](n2cnc3c(N)ncnc32)[C@H](O)[C@@H]1OP(=O)(O)O)[C@@H](O)C(=O)NCCC(=O)NCCSC(=O)c1ccccc1O; assay: as above; format: biochemical, Malus domestica; settings: malonyl-CoA held constant (standard 60 µM), 0.1 M potassium phosphate pH 7.0, 37°C
Description: as §2

[7] = substrate: CC(C)(COP(=O)(O)OP(=O)(O)OC[C@H]1O[C@@H](n2cnc3c(N)ncnc32)[C@H](O)[C@@H]1OP(=O)(O)O)[C@@H](O)C(=O)NCCC(=O)NCCSC(=O)CC(=O)O; assay: as above; format: biochemical, Malus domestica; settings: starter substrate held constant (standard 15 µM; which starter not told), 0.1 M potassium phosphate pH 7.0, 37°C; remark: listed apart in the source
Description: (§3) steady-state kinetics, LC-MS product quantification on MdBIS3 (MdBIS3.1)

[8] = substrate: CC(C)(COP(=O)(O)OP(=O)(O)OC[C@H]1O[C@@H](n2cnc3c(N)ncnc32)[C@H](O)[C@@H]1OP(=O)(O)O)[C@@H](O)C(=O)NCCC(=O)NCCSC(=O)c1ccccc1; assay: as above; format: biochemical, Malus domestica; settings: malonyl-CoA held constant (standard 60 µM), 0.1 M potassium phosphate pH 7.0, 37°C; remark: listed apart in the source
Description: as §3

[9] = substrate: CC(C)(COP(=O)(O)OP(=O)(O)OC[C@H]1O[C@@H](n2cnc3c(N)ncnc32)[C@H](O)[C@@H]1OP(=O)(O)O)[C@@H](O)C(=O)NCCC(=O)NCCSC(=O)c1ccccc1O; assay: as above; format: biochemical, Malus domestica; settings: malonyl-CoA held constant (standard 60 µM), 0.1 M potassium phosphate pH 7.0, 37°C; remark: listed apart in the source
Description: as §3

[10] = substrate: CC(C)(COP(=O)(O)OP(=O)(O)OC[C@H]1O[C@@H](n2cnc3c(N)ncnc32)[C@H](O)[C@@H]1OP(=O)(O)O)[C@@H](O)C(=O)NCCC(=O)NCCSC(=O)/C=C/c1ccc(O)cc1; assay: as above; format: biochemical, Malus domestica; settings: malonyl-CoA held constant (standard 100 µM), 0.1 M potassium phosphate pH 7.0, 37°C
Description: (§4) steady-state kinetics, LC-MS product quantification on MdCHS2

[11] = substrate: CC(C)(COP(=O)(O)OP(=O)(O)OC[C@H]1O[C@@H](n2cnc3c(N)ncnc32)[C@H](O)[C@@H]1OP(=O)(O)O)[C@@H](O)C(=O)NCCC(=O)NCCSC(=O)CC(=O)O; assay: as above; format: biochemical, Malus domestica; settings: coumaroyl-CoA held constant (standard 60 µM), 0.1 M potassium phosphate pH 7.0, 37°C
Description: as §4

Molecule: CC(C)(COP(=O)(O)OP(=O)(O)OC[C@H]1O[C@@H](n2cnc3c(N)ncnc32)[C@H](O)[C@@H]1OP(=O)(O)O)[C@@H](O)C(=O)NCCC(=O)NCCSC(=O)c1ccccc1 [Benzoyl-CoA]
- X-ray crystal structure, 1.20 Å [1]: co-crystallization of MdBIS3 with benzoyl-CoA, resulting in intact benzoyl-CoA molecules with partial occupancies

B1: HaBPS (Hypericum androsaemum) (protein)
chain: MAPAMEYSTQNGQGEGKKRASVLAIGTTNPEHFILQEDYPDFYFRNTNSEHMTELKEKFKRICVKSHIRKRHFYLTEEILKENQGIATYGAGSLDARQRILETEVPKLGQEAALKAIAEWGQPISKITHVVFATTSGFMMPGADYVITRLLGLNRTVRRVMLYNQGCFAGGTALRVAKDLAENNEGARVLVVCAENTAMTFHAPNESHLDVIVGQAMFSDGAAALIIGACPDVASGERAVFNILSASQTIVPGSDGAITAHFYEMGMSYFLKEDVIPLFRDNIAAVMEEAFSPLGVSDWNSLFYSIHPGGRGIIDGVAGNLGIKDENLVATRHVLGEYGNMGSACVMFILDELRKSSKVNGKPTTGDGKEFGCLIGLGPGLTVEAVVLQSVPILQ
notes: codon-optimized synthetic gene in pHIS8, E. coli BL21(DE3), N-terminal His8 tag cut with thrombin; homodimer
- Km [2]: 2.8 ± 0.7 µM
- Km [3]: 1.3 ± 0.5 µM
- kcat [3]: 0.0183 s⁻¹
- kcat/Km [3]: 14000 M⁻¹ s⁻¹

B2: MdBIS1 (MdBIS1.1) (Malus domestica) (protein)
chain: MAPLVKNHGEHQHAKILAIGTANPPNVYYQKDYPDFLFRVTKNEHRTDLREKFDRICEKSRTRKRYLHLTEEILKANPSIYTYGAPSLDVRQDMLNPEVPKLGQQAALKAIKEWGQPISKITHLIFCTASCVDMPGADFQLVKLLGLNPSVTRTMIYEAGCYAGATVLRLAKDFAENNEGARVLVVCAEITTVFFHGLTDTHLDILVGQALFADGASAVIVGANPEPKIERPLFEIVACRQTIIPNSEHGVVANIREMGFTYYLSGEVPKFVGGNVVDFLTKTFEKVDGKNKDWNSLFFSVHPGGPAIVDQVEEQLGLKEGKLRATRHVLSEYGNMGAPSVHFILDDMRKKSIEEGKSTTGEGLEWGVVIGIGPGLTVETAVLRSESITC
notes: cDNA in pHIS8, E. coli BL21(DE3), N-terminal His8 tag cut with thrombin
- Km [4]: 6.8 ± 1.7 µM
- Km [5]: 0.8 ± 0.2 µM
- kcat [5]: 0.2833 ± 0.00167 s⁻¹
- kcat/Km [5]: 350000 M⁻¹ s⁻¹
- Km [6]: 1.6 ± 0.4 µM
- kcat [6]: 0.2083 ± 0.00167 s⁻¹
- kcat/Km [6]: 130000 M⁻¹ s⁻¹

B3: MdBIS3 (MdBIS3.1) (Malus domestica) (protein)
chain: MAPLVKNEPQHAKILAIGTANPPNVYHQKDYPDFLFRVTKNEHRTDLREKFDRICEKSRTKKRYLHLTEEMLKANPNIYTYGAPSLDVRQDICNIEVPKLGQEAALKAIKEWGQPISRITHLIFCTASCVDMPGCDFQLIKLLGLDPSVTRTMIYEAGCYAGATVLRMAKDFAENNKGARVLVVCAEITTVFFHGLTDTHLDILVGQALFADGASAVIVGANPEPEIERPLFEIVACRQTILPNSEHGVVANIREMGFNYYLSGDVPKFVGGNVVDFMTKTFEKVDGKKKDWNSLFFSVHPGGPAIVDQVEEKLGLKEGKLRATRHVLSEYGNMGAPTVHFILDEMRNKSIEEGKTTTGEGLEWGVVIGIGPGLTVETAVLRSESIRC
notes: cDNA in pHIS8, E. coli BL21(DE3), N-terminal His8 tag cut with thrombin; homodimer
- Km [7]: 4.1 ± 1.9 µM
- Km [8]: 0.5 ± 0.1 µM
- kcat [8]: 0.135 s⁻¹
- kcat/Km [8]: 270000 M⁻¹ s⁻¹
- Km [9]: 1.1 ± 0.4 µM
- kcat [9]: 0.1 ± 0.00167 s⁻¹
- kcat/Km [9]: 90000 M⁻¹ s⁻¹

B4: MdCHS2 (Malus domestica) (protein)
chain: MVTVEEVRKAQRAEGPATVLAIGTATPSNCVDQATYPDYYFRITNSEHKTELKEKFQRMCDKSMIKKRYMYLTEEILKENPTVCEYMAPSLDARQDMVVVEVPRLGKEAATKAIKEWGQPKSKITHLVFCTTSGVDMPGADYQLTKLLGLRPYVKRLMMYQQGCFAGGTVLRLAKDLAENNKGARVLVVCSEITAVTFRGPSDTHLDSLVGQALFGDGAAAVIIGADPLPEVEKPLFELVSAAQTILPDSDGAIDGHLREVGLTFHLLKDVPGLISKNIEKSLNEAFKPIGISDWNSLFWIAHPGGPAILDQVESKLALKPEKLEATRQVLSNYGNMSSACVLFILDEVRRKSTEKGLRTTGEGLEWGVLFGFGPGLTVETVVLHSVAA
notes: as for B3
- Km [10]: 17.9 ± 6.1 µM
- kcat [10]: 0.02 ± 0.00167 s⁻¹
- kcat/Km [10]: 1120 M⁻¹ s⁻¹
- Km [11]: 12.8 ± 2.7 µM
